From publication PMC10036606

Molecular target: CD58 extracellular domain (human) (UniProt P19256)
Chain of UniProt P19256 (P19256 29-215): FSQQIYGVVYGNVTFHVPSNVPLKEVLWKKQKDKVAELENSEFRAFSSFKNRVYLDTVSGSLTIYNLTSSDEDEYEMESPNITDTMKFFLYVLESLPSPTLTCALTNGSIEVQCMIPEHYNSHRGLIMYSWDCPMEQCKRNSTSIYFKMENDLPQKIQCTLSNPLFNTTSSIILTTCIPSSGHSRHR

Q: With “CD2 (from UniProt P06729 25-351) (receptor)” as the substance, how does the glycocalyx exclusion on the SLB2 (reduction in fluorescence, contact tightness) in regions of CD58 accumulation under J8-GECI cells, against 20% in regions of ICAM-1 accumulation read?
A: 45%
